# According to IntAct's records for PubMed 20974926:
# B1: Peptide chain release factor subunit 1 (Aeropyrum pernix (strain ATCC 700893 / DSM 11879 / JCM 9820 / NBRC 100138 / K1)), Q9YAF1 (parent)
# chain: MSQGRLEERLTISKRELARLLKELKKWSAPATVLLSLYIPPGRPLSDVMTLLRQEYSITDNIKLKRTRQAVKRALSAAMDRLQMLTSTPPNGLVLFCGEDMSTGKFECFMFSPPEPIRVFYYRTDKRFITDFLEDMVEDNNAIGIIIVERDQATIGLLKGARLEVLKELEGFVPGKHKMGGQSQRRYERIIEQMVDEFFKKVGEEASNLLVPLAEKGVLKGVIVAGPGLAKQEFVEGNYLDYRLKKILAPELVDVAYQGLQGLKEAVMKAEKVVEAQMYRDAVNAMEEFKLHLAKGTGMIVYGEKDVEAALEMGAVKTLLIHESREDLEEWVEKAKSSGAQVIVVPESLAEAEWFLKTFGGLAGILRFRISTV
# partner: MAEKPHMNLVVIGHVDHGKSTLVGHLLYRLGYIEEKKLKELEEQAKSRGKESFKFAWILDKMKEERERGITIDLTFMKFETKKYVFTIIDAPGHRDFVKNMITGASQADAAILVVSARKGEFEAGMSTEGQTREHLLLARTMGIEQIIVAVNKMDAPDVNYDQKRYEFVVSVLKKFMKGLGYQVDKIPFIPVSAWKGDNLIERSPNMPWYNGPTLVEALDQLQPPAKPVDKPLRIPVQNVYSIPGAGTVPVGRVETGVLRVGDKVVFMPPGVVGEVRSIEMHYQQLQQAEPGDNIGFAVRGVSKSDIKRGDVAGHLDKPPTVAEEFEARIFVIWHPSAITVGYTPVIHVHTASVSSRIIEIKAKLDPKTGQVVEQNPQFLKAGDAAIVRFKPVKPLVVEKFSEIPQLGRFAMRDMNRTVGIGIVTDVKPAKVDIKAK
# B2: Elongation factor 1-alpha (Aeropyrum pernix (strain ATCC 700893 / DSM 11879 / JCM 9820 / NBRC 100138 / K1)), Q9YAV0 (parent)
# chain: B1 partner
# partner: B1 chain
# B3: Eukaryotic peptide chain release factor GTP-binding subunit (Schizosaccharomyces pombe (strain ATCC 38366 / 972)), O74718 (parent)
# chain: MASNQPNNGEQDEQLAKQTSKLSMSAKAPTFTPKAAPFIPSFQRPGFVPVNNIAGGYPYAQYTGQGQNSNSPHPTKSYQQYYQKPTGNTVDEDKSRVPDFSKKKSFVPPKPAIPKGKVLSLGGNTSAPKSTKPISISLGGTKAPTTTKPAAPAAQSKTETPAPKVTSESTKKETAAPPPQETPTKSADAELAKTPSAPAAALKKAAEAAEPATVTEDATDLQNEVDQELLKDMYGKEHVNIVFIGHVDAGKSTLGGNILFLTGMVDKRTMEKIEREAKEAGKESWYLSWALDSTSEEREKGKTVEVGRAYFETEHRRFSLLDAPGHKGYVTNMINGASQADIGVLVISARRGEFEAGFERGGQTREHAVLARTQGINHLVVVINKMDEPSVQWSEERYKECVDKLSMFLRRVAGYNSKTDVKYMPVSAYTGQNVKDRVDSSVCPWYQGPSLLEYLDSMTHLERKVNAPFIMPIASKYKDLGTILEGKIEAGSIKKNSNVLVMPINQTLEVTAIYDEADEEISSSICGDQVRLRVRGDDSDVQTGYVLTSTKNPVHATTRFIAQIAILELPSILTTGYSCVMHIHTAVEEVSFAKLLHKLDKTNRKSKKPPMFATKGMKIIAELETQTPVCMERFEDYQYMGRFTLRDQGTTVAVGKVVKILD
# partner: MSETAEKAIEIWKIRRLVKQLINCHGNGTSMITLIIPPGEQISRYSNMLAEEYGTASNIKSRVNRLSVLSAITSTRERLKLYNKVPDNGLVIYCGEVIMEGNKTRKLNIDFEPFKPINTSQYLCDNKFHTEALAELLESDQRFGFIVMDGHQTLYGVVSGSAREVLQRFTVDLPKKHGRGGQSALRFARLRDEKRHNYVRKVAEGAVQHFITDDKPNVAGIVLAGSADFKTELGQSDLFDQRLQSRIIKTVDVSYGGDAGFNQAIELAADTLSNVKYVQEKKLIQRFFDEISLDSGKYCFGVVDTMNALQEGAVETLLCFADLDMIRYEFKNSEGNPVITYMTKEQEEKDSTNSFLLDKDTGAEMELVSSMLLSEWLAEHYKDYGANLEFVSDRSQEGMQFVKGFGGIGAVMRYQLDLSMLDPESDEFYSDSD
# B4: Eukaryotic peptide chain release factor subunit 1 (Schizosaccharomyces pombe (strain ATCC 38366 / 972)), P79063 (parent)
# chain: B3 partner
# partner: B3 chain
# Variants of: B1
# Details: with ef1a_aerpe tuf
row,Variant,effect of a mutation on the interaction
1,E168A,decreasing interaction
2,W354A,disrupting interaction
3,K290A,disrupting interaction
4,F359A,disrupting interaction
5,L293A,disrupting interaction
6,G228A,disrupting interaction

# Variants of: B2
# Details: with rf1_aerpe prf1, Q9YAF1
row,Variant,effect of a mutation on the interaction
1,D73A,decreasing interaction
2,S337A,disrupting interaction
3,E64A,disrupting interaction
4,E65A,decreasing interaction
5,A338S,disrupting interaction
6,F379A,disrupting interaction

# Variants of: B3
# Details: with erf1_schpo sup45, P79063
row,Variant,effect of a mutation on the interaction
1,E305A,decreasing interaction
2,T294A,decreasing interaction
3,Y477A,disrupting interaction
4,Y329A,disrupting interaction
5,E297A,decreasing interaction

# Variants of: B4
# Details: with erf3_schpo sup35, O74718
row,Variant,effect of a mutation on the interaction
1,K176A,decreasing interaction
2,L173A,decreasing interaction
